Measured values published in paper PMC8595662 (Nature Communications, 2021).

Assays:
[1] = target: T1, EBV gH/gL (gH 19-679 linked to gL 24-137 by (G4S)3) (Epstein-Barr virus (human …)); assay: SPR; conditions: both partners purified
T1 construct: also called gH/gL WT; source: 293F, transfected, purified (Ni-NTA, SEC); not shown: HIS Tag, C-terminal, kept

[2] = target: T2, EBV gH/gL on the surface of CHO-K1 effector cells (Epstein-Barr virus, UniProt P03231;P03212); assay: flow cytometry on cells; conditions: one partner purified
T2 construct: also called gH/gL and gB fusion machinery

B1: AMMO1 (antibody, V domains shown)
VH: QVQLVQSGADVKKPGASVKVSCKASGYTFIHFGISWVRQAPGQGLEWMGWIDTNNGNTNYAQSLQGRVTMTTDTSTGTAYMELRSLSTDDTAVYFCARALEMGHRSGFPFDYWGQGVLVTVSP
VL: SYELTQPPSVSVAPGQRATITCGGHNIGAKNVHWYQQKPGQAPVLVIQYDSDRPSGIPERFSGSNSGSTATLTISRVEAGDEADYYCQVWDSGRGHPLYVFGGGTKVTVL
koff [1]: 8.5e-05 s⁻¹
kon [1]: 577000 M⁻¹ s⁻¹

B2: AMMO1, human gH/gL-specific neutralizing antibody (recombinant IgG1) (antibody, V domains shown)
VH: B1 VH
VL: B1 VL
binding result [2]: binds
